Measurements from the nanobody polyreactivity screen of Harvey et al. (2022).

Assay: yeast display, Sf9 membrane polyspecificity reagent, FACS + sequencing; frameworks hold sequencing errors
Outline: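 Nanobodies from a synthetic yeast display library (Saccharomyces cerevisiae BJ5465), induced 36–48 hours with galactose, were stained 1 hour at 4 °C with 10% biotinylated, detergent-solubilized Sf9 membrane reagent, enriched on streptavidin microbeads, then FACS-sorted. Anti-HA (expression) and streptavidin (reagent binding) fluorescence set low and high (top ~1%) gates. Polyreactivity labels come from the gate of origin. Genes were colony-PCR amplified, MiSeq 2 × 250 sequenced and filtered by CDR length.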

Row | Sequence | polyreactivity (PSR sort gate)
1 | QVQLVESGGGLVQAGGSLRLSCAASGLTFSSYAMGWYRQAPGKERELVAAISLSGGRTYYADSVKGRFTISRDNAKNTVYLQMNSLKPEDTAVYYCAARRPNLQHANDYWGQGTQVTVSS | high polyreactivity
2 | QVQLVESGGGLVQAGGSLRLSCAASGSTLTPNAMGWYRQAPGKERELVAAISRSGGSTYYADSVKGRFTISRDNAKNTVYLQRNSLKPEDTAVYYCRGYYIGIRAYGYWGQGTQVTVSS | high polyreactivity
3 | QVQLVESGGGLVQAGGSLRLSCAASGSTFRRYAMGWYRQAPGKERELVASISWSGGSTSYADSVKGRFTISRDTAKNTVYLQMNSLKPEDTAVYYCAAVRYYWGEYYARYAYEYWGQGTQVTVSS | high polyreactivity
4 | QVQHVESRGGLVQAGGSLRLSCDASGSTFVTYAMGWYRQAPGKERELVAAISRSGGSTYYADSVKGRFTISRDNAKNTVYLQMNSLKPEDTAVYYCAARDGYGATGHDYWGQGTQVTVSS | low polyreactivity
5 | QVQLVESGGGLVQAGGSLRLSCAASGIIFSKYAMGWYRQAPGKERELVAAISWNGVSTYYADSVKGRFTISRDNAKNTVYLQMNSLKPEDTAVYYCAADTYRSRRISYYWGQGTQVTVSS | low polyreactivity
6 | QVQLVESGGGLVQAGGSLRLSCAASGRIFRQKAMGWYRQAPGKERELVASISSGGNTYYADSVKGRFTISRDNAKNNVYLQMNSLKPEDTAVYYCAAAKQRYYRWWTTPGYDYWGQGTQVTVSS | low polyreactivity
7 | QVQLVESGGGLVQAGGSLSISCAASGRTFPEYGMGWYRQAPGKDREFVAAISTRGGSTYYANSVKGRFTISGDNAKNTVYLQMNSLKPEDTAVYYCAKVYDRSGGDYWGQGTQVTVSS | low polyreactivity
8 | QVQLVESGGGIVQAGGSLRLSCAASGIIFSIYGMGWYRQAPGKERELVAAINSGSSTNYADSVKGRFTISRDNAKNTVYLQMNSLKREDTAVYYCNADYRYPQYYHRTWIRYDYWGQGTQVTVSS | high polyreactivity
9 | QVQLVESGGGLVQAGGSLRLSCAASGRIFGNYAMGWYRQAPGKERELVAAITSGARTYYADSVKGRFTISRDNAKNTVYLQMNSLKPEDTAVYYCAAYHKSYSNRYDYWGQGTHVTVSS | high polyreactivity
10 | QVQLVESGGGLVQAGGSLRLSCAASGSTFDYYAMGWYRQAPGKERELVAAITGTGGSTYYADSVKGRFTISRDNAKNTVYLQMNSLKPEDTAVYYCAADTYLGWSYYWGQGTQVTVSS | high polyreactivity
11 | QVQLVESGGGLVQAGGSLRLSCAASGRIFSRYAMGWYRQAPGKERELVAAISCNGCSTYYADSVKGRFTISRDNAKNTVYLQMNSLKPEDTAVYYCAAYRPGPYAAYGYWGQGTQVTVSS | high polyreactivity
12 | QVQLVQSGGGLVQAGGSLRLSYAASGRIFSPNAMGWYRQAPGKERELVAAISYRGANTYYADSVKGRFTISRDNAKNTVDLQMHSLKPEDTAVYYCATRSTHYWGQGTQVTVSS | high polyreactivity
13 | QVQLVESGGGLVQAGGRLRLSCAASGSTFWLNAMGWSRQATGKERELFADSSRSGGSTYYADSVKGRFTISRDNAKNTVYLQMNSLKPEDTAVYYCAADSWPDQFTVYPGGDYWGQGTQVTVSS | low polyreactivity
14 | QVQLVESGGGLVQAGGSLRLSCAASGYIFWKNAMGWYRQAPGKERELVAGITIRGGRTYYADSVKGRFTISRDNAKNTVYLQMNSLKPEDTAVYYCNALYDYYDPYGSWGQGTQVTVSS | high polyreactivity
15 | QVQLVESGGGLVQAGGSLRLSCAASGRIFSYNAMGWYRQAPGQERELVASISGRGVITYYADSVKGRFTISRDNAKNTVYLQMNSLKPEDTAVYYCNARYIYTRPRPRNYWGQGTQVTVSS | high polyreactivity
16 | QVQLVESGGGLVQAGGSLRLSCAASGSTFYYYAMGWYRQAPGKERELVAAITISGGSTYADSVKGRFTISRDNAKNTVYLQMNSLKPEDTALYYCAAYSGVGYLWFDYWGQGTQVTVSS | low polyreactivity
17 | QVQLVESGGGLVQAGGSLRLSCAASGRTFYRNAMGWYRQAPGKERELVAAISGSGVRTYYADSVKGRFTISRDNAKNTVYLQMNSLKPEDTAVYYCARSVTWFRGRFSPDYGSWGQGTQVTVSS | high polyreactivity
18 | QVQLEESGGGLVQAGGSLRLSCAASGSTLGYNVMGWYRQAPGKERELVAAISGDGSTNYADSVKGRFTISRDNAKNTVYLQMNSLKPEDTAVYYCAADTYGGSRDYWGQGTQVTVSS | low polyreactivity
19 | QVQLVESGGGLVQAGGSLRLSCAASGRTFRYYAMGWYRQAPGKERELVAAITRSGGSTNYADSVKGRFTISRDNAKNTVYLQMNSLKPEDTAVYYCNREGRSVSGYYYYWGQGTQVTVSS | high polyreactivity
20 | QVQLVESGGGLVQAGGSLRLSCAASGRTFGSYAMGWYRQAPGKEREFVAAIYYGGGRTYYADSVKGRFSISRDNAKNTVYLQMNSLKAVDTAVYYCAADGVYRYNYPYLYTYDYWGQGTQVTVSS | low polyreactivity
21 | QVQLVESGGGLDQAGGSLRLSCAASGSTFRWYAMGWYRQAPGKERELVAAISSSGGSTYYADSVKGRFTISRDNAKNTVYLQMNSLKPEDTAVYYCAADFTGPFDYWGQGTQVTVSS | high polyreactivity
22 | QVQLVESGGGLVQAGGSLRLSCAASGRTFRFYAMGWYRQAPGKERELVAAISASGGGTYYADSVKGRFTISRDNAKHTVYLQMNCLKPEDTAVYYCATRRSYKYYWGQGTQVTVSS | high polyreactivity

Row | Sequence | polyreactivity (PSR sort gate)
23 | QVQLVESGGGLVQAGGSLRLSCAASGFTLRLYVMGWYRQAPGKERELVAAITSSGGSTYYADSVKGRFTISRDNAKNTVYLQMNSLKPEDTAVYYCAAVNRKSQLYGYWGQGTQVTVSS | high polyreactivity
24 | QVQLVESGGGLVQAGGSLRLSCAASGFTFNRYAMGWYRQAPGKERELVASITTGGRTNYADSVKGRFTISRDNAKNTVYLQMNSLKPEDTAVYYCAADYGYFYRYYYWGQGTQVTVSS | high polyreactivity
25 | QVQLVESGGGLVQAGGSLRLSCAASGRIFYHYAMGWYRQAPGKERELVAVIRSTGSTNYADSVKGRFTISRDNAKNTVYFQLKSLIPEDTAVYYCAVRRATFSYWYFNGGYWGQGTQVTVSS | high polyreactivity
26 | QVQLVESGGGLVQAGGSLRLSCAASGSTLYTYAMGWYRQAPGKERELVAAISYTGGRTYYADSVKGRFTISRDNAKNTVYLQMNSLKPEDTAVYYCAARFKSVGYDYWGQGTQVTVSS | high polyreactivity
27 | QVQLVESGGCLVQAGGRLRLSCAASGFTFNAYSMGWYRQAPGKERELVAAINVSGGITYYADSVKGRFTISRDNAKNTVYLQMNSLKPEDTAVYYCARDIRQYILYGRGDYWGQGTQVTVSS | low polyreactivity
28 | QVQLVESGGGLVQAGGSLRLSCAASGFTFQKYAMGWYRQAPGKERELVAAISSSGGRTYYADSVKGRFTISRDNAKNTVYLQMNSLKPEDTAVYYCNAVPGYVYYYQYWGQGTQVTVSS | high polyreactivity
29 | QVQLVESGGGLVQAGGSLRLSCAASGSTIYWYAMGWYRQAPGKERELVAAISLSGGSTYYADSVKGRFTISRDNAKNTVYLQMNSLKPEDTAVYYCAARTSYYVYRHPSGRYDYWGQGTQVTVSS | low polyreactivity
30 | QVQLVESGGGLVEAGGSLRLSCAASVRTFRYYDMGWFRQAPGKQWELVAAITARGGSTYYADSVKGRFTISRDNEKNTDYLQMNSQKPEDTAVYYCNAYPLQIFYLGNRQYNYWRQGTQVTVSS | high polyreactivity
31 | QVQLVESGGGLVQAGGSLRLSCAASGNIFYLNTMGWYRQAPGKERELVASITRSTGSTYYADSVKGRFTISRDNAKNTVYLQMNSLKPEDTAVYYCAADWSLNKTPRLKGYTFRDDYWGQGTQVTVTS | low polyreactivity
32 | KVQLVDSGGGLVQAGGSLRLSCAASGSIFGDNAMGWYIQAPGKERELVAAISIVGSTSYADSVKGRFTISRDNAKNTVYLLMNSLKPEDTAVYYCAAENVRSDTGFDYCGQGTQVTVSS | low polyreactivity
33 | QVQLVESGGGLVQAGGSLRLSCAASGLTIRRYVMGWYRQAPGKERELVAAINWNGGSTYYADSVKGRFTISRDNAKNTVYLQMNSLKPEDTAVYYCAARSTYVYDYNYWGQGTQVTVSS | high polyreactivity
34 | QDQHVESAGGVVQTGGSLRLSGAATGSIFGEYAMGWYRQPPGQEREFVADITRSDGSTYYADSVKGRFTISRDHAKNTVYFQMNSMKPEYTAVYYCAADSVLDRPVLYLGPWYLGDYWGQGTLVTVSS | low polyreactivity
35 | QVQLVESGGGLVQAGGSLRLSCAASGSTFDPNAMGWYRQAPGKERELVAVIDSGDGTTNYADSVKGRFTISRDNAKNTVYLQMNSLKPEDTAVYYCNKDTLVYGYVQDYEYWGQGTQVTVSS | low polyreactivity
36 | QVQLVESGGGLVQAGGSLRLSCAASGTIFVAYDMGWYRQAPGKERELVAAINFDGTSTYYADSVKGRFTISRDNAKNTVYLQMNSLKPEDTAVYYCNKRVSPTYKGQYDYWGQGTQVTVSS | low polyreactivity
37 | QVQLVESGGGLVQAGGSLRLSCAASGFIFVRYAMGWYRQAPGKERELVAAISKSGGRTYYADSVKGRFTISRDNAKNTVYLQMNSLKPEDTAVYYCAAYYYVGRVVSFDYWGQGTQVTVSS | high polyreactivity
38 | QVQLVESGGGLVQAGGSLRLSCAASGRTFYVYAMGWYRQAPGKERELVAAISWGGGSTYYADSVKGRFTISRDNAKNTVYLQMNSLKPEDTAVYYFAAESWTSGTNVPVWYYGYSWGQGTQVTVSS | low polyreactivity
39 | QVQLVESGGGLVQAGGSLRLSCAASGYTFPLYAMGWYRQAPGKERELVADINIGGASTYYADSVKGRFTISRDNAKNTVYLQKNSLKPEDTAVYYCAKEYYDGYFPTFDSDYWGQGTQVTVSS | low polyreactivity
40 | QVQLVESGGGLFQAGGSLRLSCAASGFIFQYYDMGWYRQAPGKERELVAAINYSGGNTYYADSVKGRFTISRDNAKNTVYLQLNILKPEDSEVFYCAAAPSVSCTRLYEYWGQGTQVTVSS | high polyreactivity
41 | HVQLVESGGGLVQAGGSLRLSCAACGSTFRRYTMGWYIQAPGKDRELVAAITWSGGSTYYADSVKGRFTISRDNAKNTVYLQMNSLKPEDTAVYYCAADRPYHTREYYYWGQGSQVTVSS | low polyreactivity
42 | QVQLVESGGGLVQAGGSLRLSCAASGFTFGRNAMGWYRPAPGKEMELDATISKSGGSTYYEDSVKGRFTISRDNAKNTVYLQMYSLKPEDSAVYYCAARSRRLPGDYWGQATQVTVSS | low polyreactivity
43 | HVQLVESGGGLVQAGGSLRLSCAASGSIFADNAMGWYRQAPGNERELVAAISRTGGSTYYADSVKGRFTISRDNAKNTVYLQMNSLKPEDTAVYYCAADNGYGRYRRYYYWGQGTQVTVSS | high polyreactivity
